The text below walks through data of patent publication US9598497B2, “RSPO3 binding agents and uses thereof” (OncoMed Pharmaceuticals, Inc., priority 2012, dated 2017).

Assay [1] deals with OMP-LU45 non-small cell lung tumors. The assay can be described thus: OMP-LU45 lung tumor xenograft growth. Particulars: 25 mg/kg once a week intraperitoneal, vs control antibody, FIG. 7A. It is filed as in vivo, NOD/SCID mice. On the procedure:
In OMP-LU45 non-small cell lung tumors, it has been observed that CD201^+ cells are more tumorigenic than CD201^− cells. […] Dissociated and sorted OMP-LU45 CD44^+CD201^+ lung tumor cells (5×10^4 cells) were injected into 6-8 week old NOD/SCID mice. Tumors were allowed to grow for 38 days until they reached an average volume of 140 mm^3. The mice were randomized (n=10 per group) and treated with anti-RSPO3 antibody 131R002 or a control antibody. […] Data are expressed as mean±S.E.M.

A further assay has as its system OMP-LU25 lung tumor. As to the kind of experiment: OMP-LU25 lung tumor xenograft growth. The assay is classed as in vivo, NOD/SCID mice. Particulars: 25 mg/kg once a week intraperitoneal, vs control antibody, FIG. 7B. On the procedure: In a study with a second lung tumor, dissociated OMP-LU25 lung tumor cells (5×10^4 cells) were injected into 6-8 week old NOD/SCID mice. Tumors were allowed to grow for 48 days until they reached an average volume of 110 mm^3. The mice were randomized (n=9 per group) and treated with anti-RSPO3 antibody 131R002 or a control antibody. […] Data are expressed as mean±S.E.M.
OMP-LU25 tumor cells (5×10^4) were injected into NOD-SCID mice. Tumors were allowed to grow for 33 days until they reached an average volume of 120 mm^3. Tumor-bearing mice were randomized into 4 groups (n=9 per group). Tumor-bearing mice were treated with either control antibody, anti-RSPO3 antibody 131R008, paclitaxel, or the combination of anti-RSPO3 antibody 131R008 and paclitaxel. Antibodies were dosed weekly at 20 mg/kg. Paclitaxel was dosed weekly at 15 mg/kg.

The test system of the next assay is OMP-LU102 lung tumor. The assay can be described thus: OMP-LU102 NSCLC xenograft growth. The assay is classed as in vivo, NOD-SCID mice. To be noted: antibody 25 mg/kg once a week, carboplatin 50 mg/kg once a week, FIG. 11A. The protocol:
OMP-LU102 is a patient-derived non-small cell lung cancer (NSCLC) xenograft that was selected for testing based on a high level of RSPO3 expression in microarray data. OMP-LU102 lung tumor cells (1×10^5) were injected into NOD-SCID mice. […] Carboplatin was dosed at 50 mg/kg once a week.

Assay [2] has as its system gene sets characteristic of normal stem cells or cancer stem cells. The assay can be described thus: Microarray gene set enrichment analysis of treated OMP-LU102 tumors. It is filed as in vivo, NOD-SCID mice. To be noted: RNA from OMP-LU102 tumors after treatment, FIG. 11B. The protocol: RNA was prepared from tumors from each of the four experimental groups following the treatment. Gene expression was characterized by microarray analysis.

Assay [3] deals with RSPO3-induced β-catenin signaling. The assay can be described thus: TOPflash 6xTCF-luciferase reporter assay in HEK-293 cells with WNT3a and RSPO3. It is filed as cell-based, human. On the procedure:
HEK-293 cells were transfected with a 6×TCF-luciferase reporter vector (TOPflash, Millipore, Billerica, Mass.). After 24-48 hrs, the transfected HEK-293 cells were incubated with a combination of WNT3a (5 ng/ml) and human RSPO3 (10 ng/ml, R&D BioSystems, Minneapolis, Minn.) in the presence of anti-RSPO3 antibodies 131R002 and 131R003. Antibodies 131R002 and 131R003 were added to the cells in 4-fold serial dilutions from 20 μg/ml to 0.02 μg/ml. As controls, cells were incubated with a combination of WNT3a and RSPO3, WNT3a only, RSPO3 only, or with no addition. The cells were incubated for 16 hours and luciferase activity was measured using Steady-Glo® Luciferase Assay System according to the manufacturer's instructions (Promega, Madison, Wis.).
HEK-293 cells were transfected with a 6×TCF-luciferase reporter vector (TOPflash, Millipore, Billerica, Mass.). After 24-48 hrs, the transfected HEK-293 cells were incubated with a combination of WNT3a and human RSPO3 in the presence of anti-RSPO3 antibodies 131R003, 131R003 CDR1 variant and 131R003 CDR3 variant. 131R003, 131R003 CDR1 variant, and 131R003 CDR3 variant were added to the cells in 5-fold serial dilutions from 20 μg/ml to 0.006 μg/ml. As controls, cells were incubated with a combination of WNT3a and RSPO3, WNT3a only, RSPO3 only, a control antibody, or with no addition. The cells were incubated for 16 hours and luciferase activity was measured using Steady-Glo® Luciferase Assay System according to the manufacturer's instructions (Promega, Madison, Wis.).
HEK-293 cells were transfected with a 6×TCF-luciferase reporter vector (TOPflash, Millipore, Billerica, Mass.). After 24-48 hrs, the transfected HEK-293 cells were incubated with a combination of WNT3a conditioned medium (5 ng/ml) and human RSPO3 (10 ng/ml, R&D BioSystems) in the presence of anti-RSPO3 antibodies 131R002, 131R006B, or 131R007. Antibodies 131R002, 131R006 or 131R007 were added to the cells in 5-fold serial dilutions from 20 μg/ml to 0.0064 μg/ml. As controls, cells were incubated with WNT3a conditioned medium alone, a combination of WNT3a conditioned medium and human RSPO3, or with no addition to cells. The cells were incubated for 16 hours and luciferase activity was measured using Steady-Glo® Luciferase Assay System according to the manufacturer's instructions (Promega, Madison, Wis.).
HEK-293 cells were transfected with a 6×TCF-luciferase reporter vector (TOPflash, Millipore, Billerica, Mass.). […] The cells were incubated for 16 hours and luciferase activity was measured using Steady-Glo® Luciferase Assay System according to the manufacturer's instructions (Promega, Madison, Wis.).

The next assay addresses T1, binding of RSPO3 to LGR5 (Homo sapiens, UniProt Q9BXY4).
T1 construct: expressed in transfected cells; host or cells: HEK-293T
T1 sequence (Q9BXY4 22-272): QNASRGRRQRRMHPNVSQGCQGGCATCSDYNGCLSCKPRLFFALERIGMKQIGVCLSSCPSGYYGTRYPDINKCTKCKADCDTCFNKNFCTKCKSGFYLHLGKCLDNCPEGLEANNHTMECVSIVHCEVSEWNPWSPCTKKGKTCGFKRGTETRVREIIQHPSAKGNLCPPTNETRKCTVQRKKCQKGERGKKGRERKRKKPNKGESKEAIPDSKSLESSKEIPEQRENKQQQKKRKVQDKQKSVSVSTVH
As to the kind of experiment: FACS inhibition of RSPO3-biotin binding to LGR5-expressing HEK-293T cells. To be noted: PE-streptavidin, flow cytometry, FIG. 9. On the procedure: HEK-293T cells were transfected with a cDNA expression vector that encoded the extracellular domain of human LGR5 (FLAG-LGR5-CD4TM-GFP). Transfected cells were incubated with recombinant RSPO3-biotin fusion protein in the presence of anti-RSPO3 antibodies 131R006B or 131R007. Cells were incubated without antibody as a control. Cells were washed in PBS and binding of RSPO3 to LGR5-expressing transfected cells was determined by addition of PE-conjugated streptavidin and analysis by flow cytometry.
A general note: Flow cytometry measures light scatter and fluorescence of single cells or particles in a stream.

The target in the next assay is T2, human RSPO3 (Homo sapiens, UniProt Q9BXY4).
T2 construct: purchased R&D Systems
T2 sequence (Q9BXY4 22-272): T1 sequence (Q9BXY4 22-272)
As to the kind of experiment: Biacore 2000 affinity, antibody captured by anti-human IgG, RSPO3 injected (Example 10). It is filed as binding. To be noted: human RSPO3 300 nM to 37.5 nM over captured antibody, Table 4. On the procedure: The method used was different than described in Example 3. A goat anti-human IgG antibody was coupled to a carboxymethyl-dextran (CM5) SPR chip using standard amine-based chemistry (NHS/EDC) and blocked with ethanolamine. Antibodies (purified antibody or culture supernatant) were diluted to a concentration of 10 μg/ml in HBS-P-BSA (0.01M HEPES pH7.4, 0.15M NaCl, 0.005% v/v Polysorbate 20, 100 ug/ml BSA) and captured onto the chip via the anti-human IgG antibody. Human RSPO3 (R&D Systems) was serially diluted 2-fold from 300 nM to 37.5 nM in HBS-P-BSA and injected sequentially over the captured anti-RSPO3 antibodies. RSPO3 association and dissociation was measured at each concentration. After each antigen injection 5 μl of 100 mM H3P04 was injected to remove the antigen-antibody complex and a subsequent injection performed. Kinetic data were collected over time and were fit using the simultaneous global fit equation to yield affinity constants (KD values) for each antibody (Table 4).
Background: SPR reads the build-up and loss of mass on a sensor chip optically.

Numbering of substitutions follows the chain as printed.

B1: 131R002: anti-RSPO3 antibody from a mammalian cell antibody library; heavy chain variable region SEQ ID NO:15, light chain variable region SEQ ID NO:17 (antibody, V domains shown)
VH: QVQLQESGPELVKPGASVKISCKASGYTFTDYSIHWVKQNHGKSLDWIGYIYPSNGDSGYNQKFKNRATLTVDTSSSTAYLEVRRLTFEDSAVYYCATYFANYFDYWGQGTTLTVSSAST
VL: DIVLTQSPASLAVSLGQRATISCKASQSVDYDGDSYMNWYQQKPGQPPKLLIYAASNLESGIPARFSGSGSGTDFTLNIHPVEEEDAATYYCQQSNEDPLTFGAGTKLELKR
modifications: 131R002 Heavy chain variable region; 131R002/131R003 Light chain variable region
For B1, the “OMP-LU45 lung tumor growth” value in assay [1] was “inhibited growth”. Besides, the “OMP-LU25 lung tumor growth” value in the assay on OMP-LU25 lung tumor is “inhibited growth”. For the same molecule, in the assay with OMP-LU102 lung tumor, the “OMP-LU102 lung tumor growth” value was “inhibited OMP-LU102 lung tumor growth as a single agent”. In addition, the “expression of gene sets characteristic of normal stem cells or cancer stem cells” value in assay [2] is on record as “inhibited the expression of various gene sets characteristic of normal stem cells or cancer stem cells”. Moreover, the “RSPO3-induced β-catenin signaling” value in assay [3] (WNT3a 5 ng/ml + RSPO3 10 ng/ml, antibody 20 to 0.02 μg/ml, FIG. 3) is given as “reduced RSPO3-induced β-catenin signaling in a dose-dependent manner”.

B2: h131R007: humanized 131R003 variant, IgG2; heavy chain variable region SEQ ID NO:44, light chain variable region SEQ ID NO:72 (antibody, V domains shown)
VH: QVQLVQSGAEVKKPGASVKVSCKASGYTFTDYSIHWVRQAPGQGLEWIGYIYPSNGDSGYNQKFKNRVTMTRDTSTSTAYMELSRLRSEDTAVYYCATYFANNFDYWGQGTTLTVSS
VL: B1 VL with S22T, N78T, H80N, E84A, A87V
modifications: Humanized 131R005/131R007/131R008/ 131R010/131R011 Heavy chain variable region; Humanized 131R005/131R007/131R008 Light chain variable region
As for B2, the “blocking binding of RSPO3 to LGR5-expressing cells” value with binding of RSPO3 to LGR5 is reported as “highly effective in blocking binding of RSPO3 to LGR5-expressing cells”. In addition, the dissociation constant (Kd) (usually the equilibrium constant for the complex coming apart) in the assay with human RSPO3 is 0.654 nM. The “ability to inhibit β-catenin activity compared with 131R002” value in assay [3] (WNT3a conditioned medium 5 ng/ml + human RSPO3 10 ng/ml, FIG. 8) is reported as “greater ability to inhibit β-catenin activity than antibody 131R002”.
